By IC50 is commonly meant the concentration needed to halve the response being measured.

Here are results for two molecules from PMC10371798 (2023).

This assay deals with CA-FN domains of human RPTPζ (amino acid residues 34-410) fused to human IgG1 Fc, purified (human, UniProt P23471 34-410). Kind of assay: AlphaScreen competition with biotinylated TNC(Fg). (In general: In Alpha technology, singlet oxygen from a donor bead excites a nearby acceptor bead.)

B1: Fg domain of human tenascin-C (amino acid residues 1975-2201) (domain or fragment)
chain: GLLYPFPKDCSQAMLNGDTTSGLYTIYLNGDKAEALEVFCDMTSDGGGWIVFLRRKNGRENFYQNWKAYAAGFGDRREEFWLGLDNLNKITAQGQYELRVDLRDHGETAFAVYDKFSVGDAKTRYKLKVEGYSGTAGDSMAYHNGRSFSTFDKDTDSAITNCALSYKGAFWYRNCHRVNLMGRYGDNNHSQGVNWFHWKGHEHSIQFAEMKLRPSNFRNLEGRRKRA
B1 had a concentration for half-maximal inhibition (IC50) of 43 nM.

B2: Fg domain of human tenascin-R (amino acid residues 1129-1358) (domain or fragment)
chain: GRVFPHPQDCAQHLMNGDTLSGVYPIFLNGELSQKLQVYCDMTTDGGGWIVFQRRQNGQTDFFRKWADYRVGFGNVEDEFWLGLDNIHRITSQGRYELRVDMRDGQEAAFASYDRFSVEDSRNLYKLRIGSYNGTAGDSLSYHQGRPFSTEDRDNDVAVTNCAMSYKGAWWYKNCHRTNLNGKYGESRHSQGINWYHWKGHEFSIPFVEMKMRPYNHRLMAGRKRQSLQF
For the molecule B2, the IC50 was 47 nM.
